Measured values: US20260242419A1, “A CYCLIC PEPTIDE FOR TRAPPING INTERLEUKIN-1 BETA” (Merck Sharp & Dohme LLC, priority 2023, published 2026)
Starred links: 1 amine or outer side, 2 acyl side, 3 side chain; linkers in the order of their positions; H or OH if unused. Non-standard residues stand in square brackets, D forms with d. No end group written: not given here. TyrEtNAc = (2S)-3-[4-(2-acetamidoethoxy)phenyl]-2-amino-propanoic acid, CC(=O)NCCOc1ccc(C[C@H](N[*:1])C(=O)[*:2])cc1; dProc3CH24Pal = (2R,3S)-3-(4-pyridylmethyl)pyrrolidine-2-carboxylic acid, O=C([C@H]1[C@@H](Cc2ccncc2)CCN1[*:1])[*:2]; daMeSMe = (2R)-2-amino-3-methoxy-2-methyl-propanoic acid, COC[C@@](C)(N[*:1])C(=O)[*:2]; ThrOMe = (2S,3R)-2-amino-3-methoxy-butanoic acid, CO[C@H](C)[C@H](N[*:1])C(=O)[*:2]; dPro(4R-(4-pyridylmethyl)) = O=C(O)[C@H]1C[C@@H](Cc2ccncc2)CN1; Trp(βS-Me,4-F) = C[C@@H](c1c[nH]c2cccc(F)c12)[C@H](N)C(=O)O; Bip(4'-CONH2) = NC(=O)c1ccc(-c2ccc(C[C@H](N)C(=O)O)cc2)cc1; Bip(4'-COOH) = N[C@@H](Cc1ccc(-c2ccc(C(=O)O)cc2)cc1)C(=O)O; Ala(1-bicyclo(1.1.1)pentyl) = N[C@@H](CC12CC(C1)C2)C(=O)O; dPro(3S-(4-F-Bn)) = O=C(O)[C@@H]1NCC[C@@H]1Cc1ccc(F)cc1; Trp(4-Cl) = N[C@@H](Cc1c[nH]c2cccc(Cl)c12)C(=O)O; Ala(pyrimidin-5-yl) = N[C@@H](Cc1cncnc1)C(=O)O; Phe(4-CONH2) = NC(=O)c1ccc(C[C@H](N)C(=O)O)cc1; Phe(4-COOH) = N[C@@H](Cc1ccc(C(=O)O)cc1)C(=O)O; Pro(cis-4-F) = O=C(O)[C@@H]1C[C@H](F)CN1; Ala(4-THP) = N[C@@H](CC1CCOCC1)C(=O)O; Dap(CONH2) = NC(=O)NC[C@H](N)C(=O)O; hTyr = N[C@@H](CCc1ccc(O)cc1)C(=O)O; cisHyp = O=C(O)[C@@H]1C[C@H](O)CN1; d(αMeD) = C[C@@](N)(CC(=O)O)C(=O)O; d(αMeN) = C[C@@](N)(CC(N)=O)C(=O)O; h4Pal = N[C@@H](CCc1ccncc1)C(=O)O; hPhe = N[C@@H](CCc1ccccc1)C(=O)O; 4Pal = N[C@@H](Cc1ccncc1)C(=O)O; αMeD = C[C@](N)(CC(=O)O)C(=O)O; d(αMeS) = C[C@@](N)(CO)C(=O)O; NMeDab = CN[C@@H](CCN)C(=O)O; Dab = NCC[C@H](N)C(=O)O; Aib = CC(C)(N)C(=O)O; Sar = CNCC(=O)O

These binders were tested against Recombinant human IL-1β (BioLegend 579404) (human, UniProt P01584 117-269) (assay: cell-based or functional assay).

Row | MRC5 IC50 [nM] | Binder
1 | 0.044 | cyclo([Bip(4'-COOH)][4Pal][Phe(4-COOH)]G[cisHyp][Trp(βS-Me,4-F)][Aib]SW[d(αMeS)][Ala(4-THP)]Q[Dab][Sar][dPro(4R-(4-pyridylmethyl))]) (ring closure inferred; not fully specified (bridges); printed as Bip4CO2H-4Pal-Phe4COOH-G-Proc4OH-SbMeW4F-Aib-S-W-daMeS-AlaTHP4-Q-Dab-Sar-dProc4CH24Pal, cyclic (macrolactam)) [SEQ ID NO: 207]
2 | 0.036 | cyclo([TyrEtNAc][4Pal][Phe(4-CONH2)]G[Pro(cis-4-F)][Trp(βS-Me,4-F)][Aib]SW[Aib][Ala(pyrimidin-5-yl)]Q[NMeDab]G[dPro(4R-(4-pyridylmethyl))]) (ring closure inferred; not fully specified (bridges)) [SEQ ID NO: 218]
3 | 0.029 | cyclo([Bip(4'-COOH)][4Pal][Phe(4-COOH)]G[cisHyp][Trp(βS-Me,4-F)][Aib]SW[Aib][Ala(4-THP)]Q[Dab]G[dPro(4R-(4-pyridylmethyl))]) (ring closure inferred; not fully specified (bridges); printed as Bip4CO2H-4Pal-Phe4COOH-G-Proc4OH-SbMeW4F-Aib-S-W-Aib-AlaTHP4-Q-Dab-G-dProc4CH24Pal, cyclic (macrolactam)) [SEQ ID NO: 212]
4 | 0.01 | cyclo([Bip(4'-CONH2)][4Pal][Phe(4-COOH)]G[Pro(cis-4-F)][Trp(βS-Me,4-F)][Aib]SW[d(αMeS)][Ala(4-THP)]Q[Dab]G[dPro(4R-(4-pyridylmethyl))]) (ring closure inferred; not fully specified (bridges); printed as Bip4CONH2-4Pal-Phe4COOH-G-Proc4F-SbMeW4F-Aib-S-W-daMeS-AlaTHP4-Q-Dab-G-dProc4CH24Pal, cyclic (macrolactam)) [SEQ ID NO: 215]
5 | 0.014 | [Bip(4'-COOH)][4Pal][Phe(4-COOH)]G[Pro(cis-4-F)][Trp(βS-Me,4-F)][Aib]SW[d(αMeD)][ThrOMe]Q[Dab]G[dProc3CH24Pal] (lactam (positions not given here); also: macrolactam, ring places not given here) [SEQ ID NO: 227]
6 | 0.028 | cyclo([Bip(4'-CONH2)][Ala(1-bicyclo(1.1.1)pentyl)][Phe(4-COOH)]G[Pro(cis-4-F)][Trp(βS-Me,4-F)][Aib]SW[d(αMeN)][Ala(4-THP)]Q[Dab]G[dPro(3S-(4-F-Bn))]) (ring closure inferred; not fully specified (bridges); printed as Bip4CONH2-AlaPent-Phe4COOH-G-Proc4F-SbMeW4F-Aib-S-W-daMeN-AlaTHP4-Q-Dab-G-dProc3Bn4F, cyclic (macrolactam)) [SEQ ID NO: 217]
7 | 0.022 | [Bip(4'-COOH)][4Pal][Phe(4-COOH)]G[Pro(cis-4-F)][Trp(βS-Me,4-F)][Aib]S[Trp(4-Cl)][d(αMeD)][Ala(pyrimidin-5-yl)]Q[Dap(CONH2)]G[dProc3CH24Pal] (lactam (positions not given here); also: macrolactam, ring places not given here) [SEQ ID NO: 226]
8 | 0.019 | cyclo([Bip(4'-COOH)][4Pal][Phe(4-COOH)]G[Pro(cis-4-F)][Trp(βS-Me,4-F)][Aib]SW[Aib][Ala(4-THP)]Q[Dab]G[dPro(4R-(4-pyridylmethyl))]) (ring closure inferred; not fully specified (bridges); printed as Bip4CO2H-4Pal-Phe4COOH-G-Proc4F-SbMeW4F-Aib-S-W-Aib-AlaTHP4-Q-Dab-G-dProc4CH24Pal, cyclic (macrolactam)) [SEQ ID NO: 211]
9 | 0.039 | [Bip(4'-COOH)][4Pal][Phe(4-COOH)]G[Pro(cis-4-F)][Trp(βS-Me,4-F)][Aib]SW[Aib][hTyr]Q[Dab]G[dProc3CH24Pal] (lactam (positions not given here); also: macrolactam, ring places not given here) [SEQ ID NO: 220]
10 | 0.03 | [Bip(4'-COOH)][4Pal][Phe(4-COOH)]G[Pro(cis-4-F)][Trp(βS-Me,4-F)][Aib]SW[daMeSMe][Ala(pyrimidin-5-yl)]Q[Dab]G[dProc3CH24Pal] (lactam (positions not given here); also: macrolactam, ring places not given here) [SEQ ID NO: 224]
11 | 0.02 | [Bip(4'-COOH)][4Pal][Phe(4-COOH)]G[Pro(cis-4-F)][Trp(βS-Me,4-F)][Aib]SW[d(αMeD)][hPhe]Q[Dab]G[dProc3CH24Pal] (lactam (positions not given here); also: macrolactam, ring places not given here) [SEQ ID NO: 221]
12 | 0.034 | cyclo([Bip(4'-COOH)][4Pal][Phe(4-COOH)]G[cisHyp][Trp(βS-Me,4-F)][Aib]SW[αMeD][Ala(pyrimidin-5-yl)]Q[Dab][Sar][dPro(4R-(4-pyridylmethyl))]) (ring closure inferred; not fully specified (bridges); printed as Bip4CO2H-4Pal-Phe4COOH-G-Proc4OH-SbMeW4F-Aib-S-W-aMeD-PyrimAla-Q-Dab-Sar-dProc4CH24Pal, cyclic (macrolactam)) [SEQ ID NO: 209]
13 | 0.02 | [Bip(4'-COOH)][4Pal][Phe(4-COOH)]G[Pro(cis-4-F)][Trp(βS-Me,4-F)][Aib]SW[d(αMeD)][h4Pal]Q[Dab]G[dProc3CH24Pal] (lactam (positions not given here); also: macrolactam, ring places not given here) [SEQ ID NO: 222]
14 | 0.021 | cyclo([Bip(4'-COOH)][4Pal][Phe(4-COOH)]G[cisHyp][Trp(βS-Me,4-F)][Aib]SW[d(αMeS)][Ala(4-THP)]Q[Dab]G[dPro(4R-(4-pyridylmethyl))]) (ring closure inferred; not fully specified (bridges); printed as Bip4CO2H-4Pal-Phe4COOH-G-Proc4OH-SbMeW4F-Aib-S-W-daMeS-AlaTHP4-Q-Dab-G-dProc4CH24Pal, cyclic (macrolactam)) [SEQ ID NO: 213]
15 | 0.029 | cyclo([Bip(4'-COOH)][4Pal][Phe(4-COOH)]G[cisHyp][Trp(βS-Me,4-F)][Aib]SW[αMeD][Ala(4-THP)]Q[Dab][Sar][dPro(4R-(4-pyridylmethyl))]) (ring closure inferred; not fully specified (bridges); printed as Bip4CO2H-4Pal-Phe4COOH-G-Proc4OH-SbMeW4F-Aib-S-W-aMeD-AlaTHP4-Q-Dab-Sar-dProc4CH24Pal, cyclic (macrolactam)) [SEQ ID NO: 210]
16 | 0.019 | [Bip(4'-COOH)][4Pal][Phe(4-COOH)]G[Pro(cis-4-F)][Trp(βS-Me,4-F)][Aib]S[Trp(4-Cl)][d(αMeD)][Ala(pyrimidin-5-yl)]Q[Dab]G[dProc3CH24Pal] (lactam (positions not given here); also: macrolactam, ring places not given here) [SEQ ID NO: 225]
17 | 0.015 | cyclo([Bip(4'-COOH)][4Pal][Phe(4-COOH)]G[Pro(cis-4-F)][Trp(βS-Me,4-F)][Aib]SW[αMeD][Ala(4-THP)]Q[Dab][Sar][dPro(4R-(4-pyridylmethyl))]) (ring closure inferred; not fully specified (bridges); printed as Bip4CO2H-4Pal-Phe4COOH-G-Proc4F-SbMeW4F-Aib-S-W-aMeD-AlaTHP4-Q-Dab-Sar-dProc4CH24Pal, cyclic (macrolactam)) [SEQ ID NO: 208]
18 | 0.018 | cyclo([Bip(4'-COOH)][4Pal][Phe(4-COOH)]G[Pro(cis-4-F)][Trp(βS-Me,4-F)][Aib]SW[d(αMeD)][hTyr]Q[Dab]G[dProc3CH24Pal]) (ring closure inferred; not fully specified (bridges); printed as Bip4CO2H-4Pal-Phe4COOH-G-Proc4F-SbMeW4F-Aib-S-W-daMeD-hY-Q-Dab-G-dProc3CH24Pal, cyclic (macrolactam)) [SEQ ID NO: 219]
19 | 0.027 | [Bip(4'-COOH)][4Pal][Phe(4-COOH)]G[Pro(cis-4-F)][Trp(βS-Me,4-F)][Aib]SW[d(αMeD)][h4Pal]Q[Dap(CONH2)]G[dProc3CH24Pal] (lactam (positions not given here); also: macrolactam, ring places not given here) [SEQ ID NO: 223]
20 | 0.008 | cyclo([Bip(4'-CONH2)][Ala(1-bicyclo(1.1.1)pentyl)][Phe(4-COOH)]G[Pro(cis-4-F)][Trp(βS-Me,4-F)][Aib]SW[d(αMeS)][Ala(4-THP)]Q[Dab]G[dPro(3S-(4-F-Bn))]) (ring closure inferred; not fully specified (bridges); printed as Bip4CONH2-AlaPent-Phe4COOH-G-Proc4F-SbMeW4F-Aib-S-W-daMeS-AlaTHP4-Q-Dab-G-dProc3Bn4F, cyclic (macrolactam)) [SEQ ID NO: 216]
